Data from publication doi:10.1101/636423 (bioRxiv, 2019).

Molecular target: the molecule itself
Test: native MS

B1: whole intracellular region of rat PTPRZ (rat PTPRZ-ICR) (domain or fragment)
chain: not shown
Question: Which results are given for B1?
Answer: Kd: ~7 µM; stoichiometry N: 2
